Paper PMC3229523, “Identification of Lactoferricin B Intracellular Targets Using an Escherichia coli Proteome Chip” (PLoS ONE, 2011)
Ends that are not written are not given here. * marks the point of attachment. Biotin = O=C1N[C@H]2[C@H](CS[C@H]2CCCCC(=O)*)N1

Key:
Test in all cases: peptide or protein array; E. coli proteome chip: purified His-tagged proteins printed in duplicate on Fullmoon slides, blocked with 1% BSA; 10 nM N-terminal biotinylated LfcinB with 1% BSA, room temperature, 1 h; detected with DyLight 649-labeled streptavidin, ratio to DyLight 549-labeled anti-His antibody; ProCAT normalisation, local cut-off; triplicate chips
Conditions in all cases: both partners purified
Smg = target: T1, Smg (E. coli K-12, UniProt P0A828 1-157)
T1 construct: Smg, E. coli K-12
T1 sequence (looked up): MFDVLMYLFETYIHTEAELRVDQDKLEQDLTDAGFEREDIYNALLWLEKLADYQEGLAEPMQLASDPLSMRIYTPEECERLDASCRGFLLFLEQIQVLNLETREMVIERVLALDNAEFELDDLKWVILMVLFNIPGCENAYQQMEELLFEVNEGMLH

YnhE = target: T2, YnhE (E. coli K-12, UniProt P77522 1-495)
T2 construct: YnhE, E. coli K-12
T2 sequence (looked up): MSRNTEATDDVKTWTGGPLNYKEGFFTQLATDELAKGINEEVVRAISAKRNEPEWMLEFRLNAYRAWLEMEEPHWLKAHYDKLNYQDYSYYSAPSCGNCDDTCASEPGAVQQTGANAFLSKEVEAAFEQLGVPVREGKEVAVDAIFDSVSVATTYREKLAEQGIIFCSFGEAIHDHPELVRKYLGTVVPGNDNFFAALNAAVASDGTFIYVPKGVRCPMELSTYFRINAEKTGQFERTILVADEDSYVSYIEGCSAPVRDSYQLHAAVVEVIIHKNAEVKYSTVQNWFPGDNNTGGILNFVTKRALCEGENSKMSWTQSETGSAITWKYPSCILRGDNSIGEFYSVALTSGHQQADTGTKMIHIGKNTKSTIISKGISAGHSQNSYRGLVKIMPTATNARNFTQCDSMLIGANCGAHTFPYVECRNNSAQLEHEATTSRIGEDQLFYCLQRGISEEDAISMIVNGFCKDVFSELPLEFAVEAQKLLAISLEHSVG

YibA = target: T3, YibA (E. coli K-12, UniProt P0ADK6 1-280)
T3 construct: YibA, E. coli K-12
T3 sequence (looked up): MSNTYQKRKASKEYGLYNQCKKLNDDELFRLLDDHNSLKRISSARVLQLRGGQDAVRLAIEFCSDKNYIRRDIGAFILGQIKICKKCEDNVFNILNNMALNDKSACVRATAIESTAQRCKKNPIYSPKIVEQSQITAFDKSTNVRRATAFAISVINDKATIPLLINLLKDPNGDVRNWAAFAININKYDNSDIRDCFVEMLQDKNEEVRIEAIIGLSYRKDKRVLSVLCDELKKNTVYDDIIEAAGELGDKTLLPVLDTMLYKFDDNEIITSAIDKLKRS

YjiL = target: T4, YjiL (E. coli K-12, UniProt P39383 1-255)
T4 construct: YjiL, E. coli K-12
T4 sequence (looked up): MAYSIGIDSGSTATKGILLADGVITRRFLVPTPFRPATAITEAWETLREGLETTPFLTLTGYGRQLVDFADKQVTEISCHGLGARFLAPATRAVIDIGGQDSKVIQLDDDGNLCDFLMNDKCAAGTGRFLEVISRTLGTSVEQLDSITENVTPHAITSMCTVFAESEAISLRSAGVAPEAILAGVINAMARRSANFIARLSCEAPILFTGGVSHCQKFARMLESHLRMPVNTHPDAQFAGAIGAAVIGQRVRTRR

YggF = target: T5, YggF (E. coli K-12, UniProt P21437 1-321)
T5 construct: YggF, E. coli K-12
T5 sequence (looked up): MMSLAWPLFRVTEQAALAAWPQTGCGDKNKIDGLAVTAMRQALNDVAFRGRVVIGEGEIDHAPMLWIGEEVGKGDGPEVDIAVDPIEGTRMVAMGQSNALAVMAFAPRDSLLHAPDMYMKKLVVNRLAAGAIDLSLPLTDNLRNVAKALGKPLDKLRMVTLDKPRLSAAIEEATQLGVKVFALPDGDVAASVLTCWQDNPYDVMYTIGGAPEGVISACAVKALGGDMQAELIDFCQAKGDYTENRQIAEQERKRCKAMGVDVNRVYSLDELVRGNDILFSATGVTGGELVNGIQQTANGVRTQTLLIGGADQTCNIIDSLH

YbeY = target: T6, YbeY (E. coli K-12, UniProt P0A898 1-155)
T6 construct: YbeY, E. coli K-12

Measured: binding result

T6 sequence (P0A898 whole entry): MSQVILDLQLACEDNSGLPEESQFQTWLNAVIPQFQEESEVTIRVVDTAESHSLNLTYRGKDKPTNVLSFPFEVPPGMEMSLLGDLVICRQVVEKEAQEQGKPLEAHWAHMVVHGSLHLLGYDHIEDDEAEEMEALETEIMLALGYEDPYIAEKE

B1: N-terminal biotinylated Lactoferricin B (peptide, UniProt P24627 36-60, looked up)
peptide: Biotin-FKCRRWQWRMKKLGAPSITCVRRAF
modifications: ends and bridges not checked
notes: lactoferricin B (LfcinB), cationic antimicrobial peptide of 25 amino acids; also called biotinylated LfcinB; biotin-labeled LfcinB; source: bought: Kelowna Inc
binds: all assays above
